The supplement of paper PMC9112550, “Optimization of the antimicrobial peptide Bac7 by deep mutational scanning” (BMC Biology, 2022)

system: Escherichia coli TOP10; assay: shrunken log2 fold change of peptide-encoding DNA abundance (4.5 h post-induction vs induction); higher = less antimicrobial activity (less host growth inhibition); details: time post-induction: 4.5 h; library: site-saturation at positions 5, 18, 19, 20
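Also: peptides expressed intracellularly from a pBAD plasmid library in pooled LB shake-flask culture, induced with 0.3% L-arabinose, DNA abundance read by NGS, three biological replicates, DESeq2 with apeglm shrinkage.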

Row | Sequence | shrunken log2 fold change
1 | RRIRARPPRLPRPRPRPIYPPRP | -0.387
2 | RRIRGRPPRLPRPRPRPSNIPRP | 1.1
3 | RRIRVRPPRLPRPRPRPALIPRP | 0.342
4 | RRIRERPPRLPRPRPRPGENPRP | 0.00425
5 | RRIRARPPRLPRPRPRPDRSPRP | -0.0282
6 | RRIRMRPPRLPRPRPRPGVEPRP | 1.39
7 | RRIRNRPPRLPRPRPRPYTWPRP | -0.547
8 | RRIRCRPPRLPRPRPRPWAIPRP | -0.0169
9 | RRIRVRPPRLPRPRPRPEIIPRP | -0.0128
10 | RRIRMRPPRLPRPRPRPQQGPRP | -0.121
11 | RRIRKRPPRLPRPRPRPNECPRP | 0.157
12 | RRIRMRPPRLPRPRPRPASRPRP | 0.201
13 | RRIRCRPPRLPRPRPRPRGMPRP | 1.56
14 | RRIRTRPPRLPRPRPRPTETPRP | 0.171
15 | RRIRFRPPRLPRPRPRPTFHPRP | -0.385
16 | RRIRDRPPRLPRPRPRPKELPRP | 0.0843
17 | RRIRVRPPRLPRPRPRPQFKPRP | -0.576
18 | RRIRERPPRLPRPRPRPANNPRP | -0.598
19 | RRIRVRPPRLPRPRPRPMIYPRP | -0.38
20 | RRIRERPPRLPRPRPRPKNCPRP | -0.0945
21 | RRIRWRPPRLPRPRPRPSLQPRP | 0.0895
22 | RRIRLRPPRLPRPRPRPTPCPRP | 0.152
23 | RRIRYRPPRLPRPRPRPSRFPRP | -0.074
24 | RRIRNRPPRLPRPRPRPLQMPRP | -0.0999
25 | RRIRPRPPRLPRPRPRPIVHPRP | -0.155

Row | Sequence | shrunken log2 fold change
26 | RRIRGRPPRLPRPRPRPVMNPRP | 0.434
27 | RRIRPRPPRLPRPRPRPSCHPRP | -0.31
28 | RRIRTRPPRLPRPRPRPQELPRP | 0.0724
29 | RRIRKRPPRLPRPRPRPYPPPRP | -0.289
30 | RRIRFRPPRLPRPRPRPNEIPRP | 0.232
31 | RRIRMRPPRLPRPRPRPGIDPRP | 0.403
32 | RRIRYRPPRLPRPRPRPVFIPRP | -0.929
33 | RRIRMRPPRLPRPRPRPKWHPRP | 0.349
34 | RRIRSRPPRLPRPRPRPGDEPRP | 0.0674
35 | RRIRNRPPRLPRPRPRPVEEPRP | 0.0471
36 | RRIRDRPPRLPRPRPRPCFDPRP | 0.581
37 | RRIRERPPRLPRPRPRPNCPPRP | -0.409
38 | RRIRPRPPRLPRPRPRPDITPRP | -0.783
39 | RRIRVRPPRLPRPRPRPSCHPRP | 0.292
40 | RRIRWRPPRLPRPRPRPVNGPRP | -0.295
41 | RRIRWRPPRLPRPRPRPKFMPRP | -0.0525
42 | RRIRLRPPRLPRPRPRPNYEPRP | -0.416
43 | RRIRGRPPRLPRPRPRPCDHPRP | 0.135
44 | RRIRSRPPRLPRPRPRPMVCPRP | 0.188
45 | RRIRTRPPRLPRPRPRPMEAPRP | -0.0389
46 | RRIRARPPRLPRPRPRPLFEPRP | 0.629
47 | RRIRARPPRLPRPRPRPTPRPRP | 1.5
48 | RRIRLRPPRLPRPRPRPYWFPRP | -0.758
49 | RRIRHRPPRLPRPRPRPWFDPRP | -0.0263
50 | RRIRWRPPRLPRPRPRPCELPRP | 0.0544

Row | Sequence | shrunken log2 fold change
51 | RRIRGRPPRLPRPRPRPQFGPRP | 0.0436
52 | RRIRCRPPRLPRPRPRPIDLPRP | -0.271
53 | RRIRTRPPRLPRPRPRPPHRPRP | -0.0645
54 | RRIRMRPPRLPRPRPRPHGKPRP | -0.0884
55 | RRIRFRPPRLPRPRPRPGRQPRP | 0.179
56 | RRIRGRPPRLPRPRPRPMHEPRP | 0.928
57 | RRIRPRPPRLPRPRPRPEPTPRP | 0.416
58 | RRIRHRPPRLPRPRPRPPCKPRP | -0.196
59 | RRIRGRPPRLPRPRPRPIEAPRP | 0.377
60 | RRIRHRPPRLPRPRPRPGTMPRP | -0.0455
61 | RRIRDRPPRLPRPRPRPAANPRP | 0.273
62 | RRIRERPPRLPRPRPRPLIFPRP | -0.406
63 | RRIRCRPPRLPRPRPRPFCPPRP | -0.225
64 | RRIRCRPPRLPRPRPRPQLMPRP | 0.285
65 | RRIRVRPPRLPRPRPRPLCSPRP | -0.0335
66 | RRIRNRPPRLPRPRPRPCARPRP | -0.213
67 | RRIRHRPPRLPRPRPRPADQPRP | 0.0188
68 | RRIRTRPPRLPRPRPRPSKRPRP | -0.325
69 | RRIRQRPPRLPRPRPRPLLCPRP | 0.126
70 | RRIRHRPPRLPRPRPRPVWTPRP | -0.225
71 | RRIRSRPPRLPRPRPRPVQGPRP | 0.108
72 | RRIRNRPPRLPRPRPRPWADPRP | -0.124
73 | RRIRGRPPRLPRPRPRPCKWPRP | -0.075
74 | RRIRYRPPRLPRPRPRPNNEPRP | -1.27
75 | RRIRFRPPRLPRPRPRPWPNPRP | -0.086

Row | Sequence | shrunken log2 fold change
76 | RRIRGRPPRLPRPRPRPNAGPRP | 0.552
77 | RRIRKRPPRLPRPRPRPEIYPRP | -0.00723
78 | RRIRCRPPRLPRPRPRPFERPRP | -0.0613
79 | RRIRLRPPRLPRPRPRPNIYPRP | -0.585
80 | RRIRPRPPRLPRPRPRPTAVPRP | 0.362
81 | RRIRNRPPRLPRPRPRPPGGPRP | 0.748
82 | RRIRNRPPRLPRPRPRPSMKPRP | -0.609
83 | RRIRKRPPRLPRPRPRPYGDPRP | -0.224
84 | RRIRWRPPRLPRPRPRPNFRPRP | 0.298
85 | RRIRSRPPRLPRPRPRPQNMPRP | -0.268
86 | RRIRIRPPRLPRPRPRPDMDPRP | -0.122
87 | RRIRWRPPRLPRPRPRPGTTPRP | 0.0295
88 | RRIRKRPPRLPRPRPRPCYAPRP | 0.083
89 | RRIRNRPPRLPRPRPRPRGEPRP | -0.029
90 | RRIRARPPRLPRPRPRPHTLPRP | -0.213
91 | RRIRCRPPRLPRPRPRPNYNPRP | -0.986
92 | RRIRERPPRLPRPRPRPHTAPRP | -0.14
93 | RRIRPRPPRLPRPRPRPNLTPRP | 0.0262
94 | RRIRNRPPRLPRPRPRPMHSPRP | -0.0169
95 | RRIRQRPPRLPRPRPRPLPCPRP | -0.00831
96 | RRIRMRPPRLPRPRPRPASQPRP | 0.174
97 | RRIRIRPPRLPRPRPRPDSTPRP | 0.00478
98 | RRIRFRPPRLPRPRPRPKPIPRP | 0.0634
99 | RRIRSRPPRLPRPRPRPTGDPRP | 0.353
100 | RRIRARPPRLPRPRPRPTQCPRP | 0.391

Row | Sequence | shrunken log2 fold change
101 | RRIRERPPRLPRPRPRPFHAPRP | -0.0736
102 | RRIRIRPPRLPRPRPRPWHFPRP | -0.0737
103 | RRIRCRPPRLPRPRPRPSMRPRP | 0.303
104 | RRIRSRPPRLPRPRPRPYWRPRP | -0.21
105 | RRIRCRPPRLPRPRPRPTYQPRP | -0.346
106 | RRIRIRPPRLPRPRPRPSMLPRP | -0.422
107 | RRIRYRPPRLPRPRPRPLNQPRP | -0.343
108 | RRIRHRPPRLPRPRPRPPKGPRP | 0.113
109 | RRIRARPPRLPRPRPRPPRSPRP | 1.12
110 | RRIRQRPPRLPRPRPRPAFLPRP | -0.0387
111 | RRIRPRPPRLPRPRPRPCHPPRP | -0.154
112 | RRIRPRPPRLPRPRPRPSRLPRP | -0.0839
113 | RRIRPRPPRLPRPRPRPISAPRP | -0.0726
114 | RRIRQRPPRLPRPRPRPHCTPRP | 0.157
115 | RRIRCRPPRLPRPRPRPPDQPRP | 0.581
116 | RRIRVRPPRLPRPRPRPPAQPRP | 0.223
117 | RRIRVRPPRLPRPRPRPNLYPRP | -0.563
118 | RRIRLRPPRLPRPRPRPHAEPRP | -0.203
119 | RRIRMRPPRLPRPRPRPCNDPRP | -0.165
120 | RRIRNRPPRLPRPRPRPTWIPRP | -0.0601
121 | RRIRRRPPRLPRPRPRPYLKPRP | -0.936
122 | RRIRERPPRLPRPRPRPYEVPRP | -0.448
123 | RRIRVRPPRLPRPRPRPYTAPRP | -0.649
124 | RRIRARPPRLPRPRPRPSANPRP | 0.344
125 | RRIRNRPPRLPRPRPRPARCPRP | 0.319

Row | Sequence | shrunken log2 fold change
126 | RRIRERPPRLPRPRPRPIGMPRP | 0.115
127 | RRIRFRPPRLPRPRPRPGMMPRP | -0.216
128 | RRIRVRPPRLPRPRPRPCFLPRP | -0.493
129 | RRIRIRPPRLPRPRPRPSFSPRP | -0.357
130 | RRIRDRPPRLPRPRPRPSPKPRP | -0.00809
131 | RRIRKRPPRLPRPRPRPTEGPRP | 0.869
132 | RRIRDRPPRLPRPRPRPNCHPRP | -0.23
133 | RRIRRRPPRLPRPRPRPYKHPRP | -0.89
134 | RRIRVRPPRLPRPRPRPTVPPRP | -0.138
135 | RRIRTRPPRLPRPRPRPSVLPRP | -0.239
136 | RRIRMRPPRLPRPRPRPHRCPRP | 0.15
137 | RRIRHRPPRLPRPRPRPTNGPRP | -0.154
138 | RRIRFRPPRLPRPRPRPCVIPRP | 0.0397
139 | RRIRPRPPRLPRPRPRPTKCPRP | -0.0849
140 | RRIRWRPPRLPRPRPRPANFPRP | 0.106
141 | RRIRKRPPRLPRPRPRPEKLPRP | 0.103
142 | RRIRCRPPRLPRPRPRPCWDPRP | -0.294
143 | RRIRIRPPRLPRPRPRPMFRPRP | -0.0542
144 | RRIRPRPPRLPRPRPRPFMCPRP | -0.164
145 | RRIRQRPPRLPRPRPRPWFNPRP | -0.359
146 | RRIRERPPRLPRPRPRPVVKPRP | -0.413
147 | RRIRTRPPRLPRPRPRPEPNPRP | -0.0182
148 | RRIRMRPPRLPRPRPRPLFLPRP | -0.254
149 | RRIRFRPPRLPRPRPRPHFQPRP | -0.261
150 | RRIRPRPPRLPRPRPRPDECPRP | -0.041
